Experimental data taken from patent US20210292753A1.

Molecular target: SAMHD1 (T592A), constitutively active SAM domain and HD domain-containing protein 1 (UniProt Q9Y3Z3)
Experiment: cell-based or functional assay

Sequence of SAMHD1 (T592A), constitutively active SAM domain and HD domain-containing protein 1 (Q9Y3Z3 whole entry T592A, the tested form may be a part): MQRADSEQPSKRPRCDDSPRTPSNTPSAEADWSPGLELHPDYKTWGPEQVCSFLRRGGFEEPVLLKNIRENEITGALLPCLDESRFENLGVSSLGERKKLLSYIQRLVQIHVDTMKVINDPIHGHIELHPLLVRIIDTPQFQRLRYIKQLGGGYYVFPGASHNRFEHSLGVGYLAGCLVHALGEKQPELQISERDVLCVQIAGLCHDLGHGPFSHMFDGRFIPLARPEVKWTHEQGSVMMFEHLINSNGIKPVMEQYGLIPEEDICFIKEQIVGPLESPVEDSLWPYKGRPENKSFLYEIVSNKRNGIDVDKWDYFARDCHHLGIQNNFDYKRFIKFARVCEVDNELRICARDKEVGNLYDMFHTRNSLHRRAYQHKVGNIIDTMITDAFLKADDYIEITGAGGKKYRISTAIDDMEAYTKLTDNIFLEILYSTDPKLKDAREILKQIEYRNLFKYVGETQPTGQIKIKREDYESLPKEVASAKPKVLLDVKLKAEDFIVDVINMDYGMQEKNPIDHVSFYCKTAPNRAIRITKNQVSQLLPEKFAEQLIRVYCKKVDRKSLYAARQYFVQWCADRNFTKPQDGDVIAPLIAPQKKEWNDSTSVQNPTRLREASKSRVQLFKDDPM

Row | Substance | editing efficiency, RW2I, mutation 2-nt from the nick, SAMHD1 (T592A) coexpressed [%] | editing efficiency, mutation 65-nt from the nick, relative to no SAMHD1^p- [%]
1 | VPX^RH2-1 (variant of VPX from HIV-2 clinical isolate RH2-1) (from UniProt P20881 1-112) | 64 | 
2 | VPX^ROD (Vpx from the ROD HIV-2 isolate) (from UniProt P06939 1-112) |  | 78
